Data on two molecules can be found in US20240228627A1, “GALECTIN-1-SPECIFIC MONOVALENT ANTIBODIES AND USES THEREOF” (INSTITUT NATIONAL DE LA RECHERCHE SCIENTIFIQUE, priority 2021, published 2024).

As a reminder, the Kd is a measure of binding affinity in units of concentration.

For one experiment, the target named is T1, human galectin-13 (human, UniProt Q9UHV8 1-139).
T1 construct: Recombinant, made in E. coli; also called human GAL-13; Gal-13
T1 sequence: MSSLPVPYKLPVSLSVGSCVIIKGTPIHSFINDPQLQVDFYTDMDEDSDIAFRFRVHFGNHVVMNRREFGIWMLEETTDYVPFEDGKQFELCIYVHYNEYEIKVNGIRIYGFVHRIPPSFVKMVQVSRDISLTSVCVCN
In words: ELISA, human galectin-13 immobilized at 1 µM, anti-His-tag detection [left panel (1 µM]. The procedure: (§1) Briefly, human galectins were immobilized at 1 and 5 μM for 16 h at 4° C. After a blocking step with PBS containing 10% (v/v) BSA (blocking buffer), increasing concentrations of G1N1 were added to each well and incubated for 1 h at room T° C. […] The colorimetric assay was carried out with 3,3′,5,5′-tetramethylbenzidine (Sigma-Aldrich, ON, Canada) according to the manufacturers recommendations.
(§2) ELISA assays. Recombinant human galectins were immobilized in 96-well plates at the indicated concentrations for 16 h at 4° C. After a blocking step with PBS containing 10% (v/v) bovine serum albumin (BSA) (blocking buffer), increasing concentrations of G1N1 were added to each well and incubated for 1 h at room temperature. […] The colorimetric assay was carried out with TMB (Sigma-Aldrich, MO, USA) according to the manufacturer's recommendations.
(In general: An ELISA detects its analyte on a solid surface through an enzyme-linked reagent.)

For another experiment, the target named is T2, human galectin-2 (human, UniProt P05162 1-132).
T2 construct: Recombinant, made in E. coli; also called Gal-2
T2 sequence: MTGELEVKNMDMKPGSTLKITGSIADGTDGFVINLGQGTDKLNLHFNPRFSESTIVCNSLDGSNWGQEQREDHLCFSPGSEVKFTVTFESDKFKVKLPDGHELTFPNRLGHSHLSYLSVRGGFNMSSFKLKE
In words: ELISA, human galectin-2 immobilized at 1 µM, anti-His-tag detection [left panel (1 µM]. The procedure: as §1, §2

A further experiment has as its target T3, mouse galectin-7 (mouse, UniProt O54974 1-136, limits assumed).
T3 construct: also called mouse GAL-7
T3 sequence (looked up): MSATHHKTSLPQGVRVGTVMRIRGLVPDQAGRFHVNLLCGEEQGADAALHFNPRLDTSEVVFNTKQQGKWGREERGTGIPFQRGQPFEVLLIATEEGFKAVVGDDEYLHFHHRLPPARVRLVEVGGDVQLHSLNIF
The experiment can be described thus: microscale thermophoresis, Red-NHS labeled G1N1 (2 nM). The procedure:
(§3) FIG. 9A: Red-NHS labeled human GAL-1 (5 nM) incubated with G1N1 or alpha-lactose (a-lactose). […] In the same experiment, no binding was detected at 10 μM for human GAL-7, mouse GAL-7, human GAL-8 and human GAL-13. All experiments were performed in 20 mM Tris-HCl 150 mM NaCl and 0.1% F127. Binding affinities (Kd values) were determined from the fitted curves (three parameter dose-response curve) obtained from data of at least 3 independent experiments. For each value, 95% confidence intervals (Cl) are indicated.

Experiment [1] addresses T4, recombinant human galectin-1 (human, UniProt P09382 2-135).
T4 construct: Recombinant, made in E. coli BL21(DE3) from pET-22b(+); also called hGAL-1; GAL-1
In words: microscale thermophoresis (MST), Red-NHS labeled human GAL-1 (5 nM) with G1N1 or alpha-lactose. The procedure: as §3

A further experiment addresses T5, human galectin-7 (human, UniProt P47929 1-136).
T5 construct: Recombinant, made in E. coli; also called human GAL-7; Gal-7
In words: ELISA, human galectin-7 immobilized at 1 µM, anti-His-tag detection [left panel (1 µM]. The procedure:
as §1, §2

Experiment [2] concerns the target T4, recombinant human galectin-1. In words: microscale thermophoresis, Red-NHS labeled human GAL-1 (5 nM), G1N1 titrated; value in brackets is the 95% CI. On the procedure:
as §3

Experiment [3] has as its target T6, recombinant mouse galectin-1 (mouse, UniProt P16045 2-135).
T6 construct: also called mGAL-1
The experiment can be described thus: microscale thermophoresis, Red-NHS labeled G1N1 (2 nM), mouse galectin-1 titrated; value in brackets is the 95% CI. In general terms: Microscale thermophoresis detects binding through changes in fluorescence in a small temperature gradient.

Experiment [4] concerns the target T4, recombinant human galectin-1. The experiment can be described thus: microscale thermophoresis, Red-NHS labeled G1N1 (2 nM), human galectin-1 titrated; value in brackets is the 95% CI. On the procedure: FIG. […] In the same experiment, no binding was detected at 10 μM for human GAL-7, mouse GAL-7, human GAL-8 and human GAL-13. All experiments were performed in 20 mM Tris-HCl 150 mM NaCl and 0.1% F127. Binding affinities (Kd values) were determined from the fitted curves (three parameter dose-response curve) obtained from data of at least 3 independent experiments. For each value, 95% confidence intervals (Cl) are indicated.

Experiment [5] concerns the target T7, GAL-1-Biotin (biotinylated human GAL-1) (Homo sapiens, UniProt P09382).
T7 construct: made in house; host or cells: E. coli BL21 (DE3), pET-22b(+)
In words: non-adsorbed phage ELISA of VHH clones on GAL-1-Biotin. Type of experiment: binding. The settings on record: HRP-conjugated anti-M13 antibody, TMB substrate; 282 clones tested. The procedure: Generation and production of single chain camelid antibodies. Galectin-specific single chain (VHH) camelid antibodies were obtained following in vitro screening of a non-immune humanized synthetic single domain antibodies (hsd2Ab) library that contains more than 3×10^9 clones expressed at the surface of M13 phage [Moutel et al., 2016]. The panning was carried out against immobilized recombinant human galectin-1 devoid of carbohydrate in its glycan binding site (GBS). Prior to the phage display selection, galectin-1-biotin and GST-Biotin were bound to streptavidin magnetic beads (Dynabeads® M-280 Streptavidin, Life Technologies) with a 50 nM final concentration of biotinylated protein for the first round and 10 nM final concentration of biotinylated protein for the second and third rounds. […] Following three-rounds of phage display, clones were picked randomly and analyzed by non-adsorbed phage ELISA using HRP-conjugated anti-M13 antibody (GE Healthcare) and a colorimetric substrate (TMB, tetramethylbenzidine, Thermo Fischer).
Following an initial pre-screen round of phage display carried out with GST-biotin to deplete the library from unspecific binders, unbound VHHs were incubated with GAL-1-Biotin beads. […] A total of 282 VHHs were then picked and analyzed by ELISA for galectin-1 binders.

Experiment [6] has as its target T8, recombinant human GAL-1 (rhGAL-1) (Homo sapiens, UniProt P09382).
T8 construct: made in house; host or cells: E. coli BL21 (DE3), pET-22b(+)
In words: inhibition of galectin-1-induced apoptosis of Jurkat T cells (annexin V/propidium iodide flow cytometry). It is filed as cell-based. The settings on record: rhGAL-1 2.25 μM, 4 h at 37° C., increasing concentrations of nanobody. The procedure: Briefly, Jurkat T cells were incubated with recombinant human GAL-1 (rhGAL-1; 2.25 μM) for 4h at 37° C. in presence of increasing concentrations of G1N1 and G1N2. Apoptosis was measured by flow cytometry using conventional annexin V/propidium iodide staining. Results represent data recorded on 5000 cells. Errors bars represent standard deviation.
Jurkat T cells were incubated with increasing concentrations of G1N1 pre-incubated with rhGAL-1 (2.25 μM) for 4 h at 37° C., after which apoptosis was measured by flow cytometry using Annexin V/propidium iodide staining. 5000 events were recorded. Errors bars represent standard deviation.
Apoptosis of human T cells. In vitro apoptosis assays were carried out using the standard in vitro human Jurkat T cell model system, fluorescein isothiocyanate (FITC)-labeled annexin V (Biolegend, San Diego, CA, USA) and propidium iodide (PI). Briefly, recombinant galectin-1 was pre-incubated for 1 h at 4° C. in serum free RPMI 1640 medium before addition to Jurkat cells. The mixture was incubated at 37° C. for 4 h. Cells were then washed once in PBS and once in binding buffer (0.01 M HEPES, 0.14 M NaCl, 2.5 mM CaCl2, pH 7.4). For staining, cells were incubated for 15 min with FITC-labeled annexin V in the dark at room temperature. The PI (0.25 μg/mL) stain was added to cells just before analysis by flow cytometry.
On the technique in general: Flow cytometry measures light scatter and fluorescence of single cells or particles in a stream.

T4 sequence (P09382 2-135 limits assumed): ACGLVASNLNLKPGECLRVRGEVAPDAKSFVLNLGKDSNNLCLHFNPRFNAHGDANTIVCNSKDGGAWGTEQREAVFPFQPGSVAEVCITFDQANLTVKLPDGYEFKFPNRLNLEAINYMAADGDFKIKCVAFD
T8 sequence (P09382 whole entry): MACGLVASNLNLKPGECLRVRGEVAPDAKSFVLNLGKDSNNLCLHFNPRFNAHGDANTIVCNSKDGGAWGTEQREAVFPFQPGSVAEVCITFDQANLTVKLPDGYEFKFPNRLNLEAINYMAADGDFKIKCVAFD
T7 sequence (P09382 whole entry): as above
T5 sequence (P47929 whole entry): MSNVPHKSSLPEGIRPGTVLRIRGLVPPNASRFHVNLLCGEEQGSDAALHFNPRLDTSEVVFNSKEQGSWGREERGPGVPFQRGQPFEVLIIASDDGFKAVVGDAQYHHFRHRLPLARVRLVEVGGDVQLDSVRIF
T6 sequence (P16045 2-135 limits assumed): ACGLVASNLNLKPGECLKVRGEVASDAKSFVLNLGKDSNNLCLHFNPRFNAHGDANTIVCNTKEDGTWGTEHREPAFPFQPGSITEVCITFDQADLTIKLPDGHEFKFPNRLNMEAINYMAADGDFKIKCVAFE

B1: G1N1 nanobody (galectin-1-specific VHH, clone D06) (VHH)
VHH: EVQLQASGGGFVQPGGSLRLSCAASGSTFSEDAMGWFRQAPGKEREFVSAISGFANPHSYYADSVKGRFTISRDNSKNTVYLQMNSLRAEDTATYYCAASHKKTRAPAATFETYWGQGTQVTVSS
notes: From a synthetic humanized nanobody library (hsd2Ab); For apoptosis, MST and ELISA it was made in E. coli from pHEN2 with 6xHis and cMyc tags; also called GAL-1-specific Nb #1; lead VHH clone G1N1; not shown: 6xHis and cMyc tags from vector pHEN2
As for B1, the binding result in the experiment with human galectin-13, in the experiment with human galectin-2, in the experiment with mouse galectin-7 and with human galectin-7 was “no binding (tested: 10 µM)” each time. Further, the “fold higher affinity than lactose for galectin-1” value in experiment [1] is around 200 fold. The values for the dissociation constant (Kd) in experiment [2], in experiment [3] and in experiment [4] were 87 nM, 24.6 nM and 750 nM, respectively.

B2: G1N2: galectin-1-specific single-domain VHH nanobody, SEQ ID NO:9; weak-binding second clone from phage display (protein)
VHH: MAEVQLQASGGGFVQPGGSLRLSCAASGSTYFHTAMGWFRQAPGKEREFVSAISGFANPHRYYASSVKGRFTISRDNSKNTVYLQMNSLRAEDTATYYCANLISTNRGWLMGYWCQGTQVTVSS
modifications: G1N2 VHH
Regarding B2, the “binding in phage ELISA in the presence of GAL-1-Biotin” value in experiment [5] is “weak binding”. In addition, the “inhibition of galectin-1-induced apoptosis of Jurkat T cells” value in [6] is reported as “not”.
